Experimental data from patent US20200199241A1 (Chugai, published 2020).
Substitutions are numbered along the chain they refer to. In names and notes the source's numbering stands.

B1: IgG1-F306 (antibody)
heavy: QVQLQESGPGLVKPSETLSLTCAVSGHSISHDHAWSWVRQPPGEGLEWIGFISYSGITNYNPSLQGRVTISRDNSKNTLYLQMNSLRAEDTAVYYCARSLARTTAMDYWGEGTLVTVSSASTKGPSVFPLAPSSKSTSGGTAALGCLVKDYFPEPVTVSWNSGALTSGVHTFPAVLQSSGLYSLSSVVTVPSSSLGTQTYICNVNHKPSNTKVDKKVEPKSCDKTHTCPPCPAPELLGGPSVFLFPPKPKDTLWISRTPEVTCVVVDVSHEDPEVKFNWYVDGVEVHNAKTKPREEQYNSTYRVVSVLTPLHQDWLNGKEYKCKVSNKALPAPIEKTISKAKGQPREPQVYTLPPSRDELTKNQVSLTCLVKGFYPSDIAVEWASNGQPENNYKTTPPVLDSDGSFFLYSKLTVDKSRWQQGNVFSCSVMHEALHYHYTQKSLSLSP
light: not shown
notes: EU numbering; copies: 2 + 2
B2: IgG1-F317 (antibody)
heavy: B1 heavy with S241K, W254Y, D272F, A384E, M430Y
light: not shown
notes: EU numbering; copies: 2 + 2
B3: IgG1-F307 (antibody)
heavy: B1 heavy with S241K
light: not shown
notes: EU numbering; copies: 2 + 2
B4: IgG1-F343 (antibody)
heavy: B1 heavy with S241K, W254Y, D272F, A384E, M430L
light: not shown
notes: EU numbering; copies: 2 + 2
B5: IgG1-F313 (antibody)
heavy: B1 heavy with S241K, W254Y, T309P, P310V, A384E, M430Y
light: not shown
notes: EU numbering; copies: 2 + 2
B6: IgG1-F333 (antibody)
heavy: B1 heavy with S241K, W254Y, D272F, T309Q, P310V, L311E, Q313A, A384E
light: not shown
notes: EU numbering; copies: 2 + 2
B7: IgG1-F335 (antibody)
heavy: B1 heavy with S241K, W254Y, T258E, D272F, A384E, M430I
light: not shown
notes: EU numbering; copies: 2 + 2
B8: IgG1-F354 (antibody)
heavy: B1 heavy with S241K, W254Y, T309Q, A384E, M430L
light: not shown
notes: EU numbering; copies: 2 + 2
B9: IgG1-F311 (antibody)
heavy: B1 heavy with S241K, A384E, M430F
light: not shown
notes: EU numbering; copies: 2 + 2
B10: IgG1-F315 (antibody)
heavy: B1 heavy with S241K, W254Y, P310V, A384E, M430Y
light: not shown
notes: EU numbering; copies: 2 + 2
B11: IgG1-F323 (antibody)
heavy: B1 heavy with S241K, W254Y, T258E, D272F, A384E
light: not shown
notes: EU numbering; copies: 2 + 2
B12: IgG1-F362 (antibody)
heavy: B1 heavy with W254M, P259V, T309Q, P310V, N327G, A384E, M430L
light: not shown
notes: EU numbering; copies: 2 + 2
B13: IgG1-F314 (antibody)
heavy: B1 heavy with W254Y, T258E, P310V, Q313A, D314A, A384E, M430Y
light: not shown
notes: EU numbering; copies: 2 + 2
B14: IgG1-F325 (antibody)
heavy: B1 heavy with S241K, W254Y, D272F, T309Q, Q313A, A384E
light: not shown
notes: EU numbering; copies: 2 + 2
B15: IgG1-F334 (antibody)
heavy: B1 heavy with S241K, W254Y, D272F, N327G, A384E, M430I
light: not shown
notes: EU numbering; copies: 2 + 2
B16: IgG1-F316 (antibody)
heavy: B1 heavy with S241K, W254Y, D272F, P310V, A384E, M430Y
light: not shown
notes: EU numbering; copies: 2 + 2
B17: IgG1-F330 (antibody)
heavy: B1 heavy with S241K, W254Y, D272F, L311E, A384E
light: not shown
notes: EU numbering; copies: 2 + 2
B18: IgG1-F352 (antibody)
heavy: B1 heavy with S241K, W254Y, P310V, L311P, A384E, M430L
light: not shown
notes: EU numbering; copies: 2 + 2
B19: IgG1-F336 (antibody)
heavy: B1 heavy with S241K, W254Y, D272F, T309Q, Q313A, A384E, M430I
light: not shown
notes: EU numbering; copies: 2 + 2
B20: IgG1-F360 (antibody)
heavy: B1 heavy with W254M, P259V, T309Q, P310V, A384E, M430V
light: not shown
notes: EU numbering; copies: 2 + 2
B21: IgG1-F320 (antibody)
heavy: B1 heavy with S241K, W254Y, N327G, M430I
light: not shown
notes: EU numbering; copies: 2 + 2
B22: IgG1-F339 (antibody)
heavy: B1 heavy with S241K, W254Y, D272F, L311E, A384E, M430I
light: not shown
notes: EU numbering; copies: 2 + 2
B23: IgG1-F349 (antibody)
heavy: B1 heavy with S241K, W254Y, L311P, A384E, M430L
light: not shown
notes: EU numbering; copies: 2 + 2
B24: IgG1-F331 (antibody)
heavy: B1 heavy with S241K, W254Y, D272F, A384E, P389E
light: not shown
notes: EU numbering; copies: 2 + 2
B25: IgG1-F358 (antibody)
heavy: B1 heavy with S241K, W254Y, T309Q, P310V, A384E
light: not shown
notes: EU numbering; copies: 2 + 2
B26: IgG1-F350 (antibody)
heavy: B1 heavy with S241K, W254Y, L311R, A384E, M430L
light: not shown
notes: EU numbering; copies: 2 + 2
B27: IgG1-F359 (antibody)
heavy: B1 heavy with W254M, P259V, T309Q, P310V, A384E, M430I
light: not shown
notes: EU numbering; copies: 2 + 2
B28: IgG1-F328 (antibody)
heavy: B1 heavy with S241K, W254Y, D272F, A384E, M430I
light: not shown
notes: EU numbering; copies: 2 + 2
B29: IgG1-F363 (antibody)
heavy: B1 heavy with W254M, P259V, T309Q, P310V, Q313A, A384E, M430L
light: not shown
notes: EU numbering; copies: 2 + 2
B30: IgG1-F312 (antibody)
heavy: B1 heavy with S241K, P310V, E382A, M430F
light: not shown
notes: EU numbering; copies: 2 + 2
B31: IgG1-F326 (antibody)
heavy: B1 heavy with S241K, W254Y, D272F, T309Q, P310V, Q313A, A384E
light: not shown
notes: EU numbering; copies: 2 + 2
B32: IgG1-F324 (antibody)
heavy: B1 heavy with S241K, W254Y, D272F, T309Q, A384E
light: not shown
notes: EU numbering; copies: 2 + 2
B33: IgG1-F322 (antibody)
heavy: B1 heavy with S241K, W254Y, D272F, T309P, A384E
light: not shown
notes: EU numbering; copies: 2 + 2
B34: IgG1-F338 (antibody)
heavy: B1 heavy with S241K, W254Y, D272F, N288E, A384E, M430I
light: not shown
notes: EU numbering; copies: 2 + 2
B35: IgG1-F353 (antibody)
heavy: B1 heavy with S241K, W254Y, P310V, L311R, A384E, M430L
light: not shown
notes: EU numbering; copies: 2 + 2
B36: IgG1-F344 (antibody)
heavy: B1 heavy with S241K, W254Y, A384E, M430L
light: not shown
notes: EU numbering; copies: 2 + 2
B37: IgG1-F318 (antibody)
heavy: B1 heavy with S241K, W254Y, A384E, M430I
light: not shown
notes: EU numbering; copies: 2 + 2
B38: IgG1-F337 (antibody)
heavy: B1 heavy with S241K, W254Y, D272F, T309Q, P310V, Q313A, A384E, M430I
light: not shown
notes: EU numbering; copies: 2 + 2
B39: IgG1-F310 (antibody)
heavy: B1 heavy with S241K, M430I
light: not shown
notes: EU numbering; copies: 2 + 2
B40: IgG1-F356 (antibody)
heavy: B1 heavy with S241K, W254Y, D272F, L311E, A384E, P389E
light: not shown
notes: EU numbering; 'Y308P' as printed, probably V308P; copies: 2 + 2
B41: IgG1-F321 (antibody)
heavy: B1 heavy with S241K, W254Y, D272F, N327G, A384E
light: not shown
notes: EU numbering; copies: 2 + 2
B42: IgG1-F308 (antibody)
heavy: B1 heavy with S241K, M430Y
light: not shown
notes: EU numbering; copies: 2 + 2

target: T1, human FcRn (soluble human FcRn complexed with β2-microglobulin) (human, UniProt P61769 21-119, limits assumed); assay: SPR, pH 7.0;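 note: antibodies captured on a Protein L sensor chip with human FcRn injected as analyte, KD calculated from fitted association and dissociation rate constants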
T1 construct: also called hFcRn

Kd | Binder
36 nM | B1
110 nM | B2
36 nM | B3
32 nM | B4
650 nM | B5
74 nM | B6
15 nM | B7
28 nM | B8
28 nM | B9
680 nM | B10
27 nM | B11
54 nM | B12
320 nM | B13
21 nM | B14
19 nM | B15
700 nM | B16
36 nM | B17
600 nM | B18
14 nM | B19
1300 nM | B20
20 nM | B21

Kd | Binder
19 nM | B22
150 nM | B23
30 nM | B24
100 nM | B25
170 nM | B26
420 nM | B27
19 nM | B28
41 nM | B29
450 nM | B30
75 nM | B31
28 nM | B32
92 nM | B33
7.7 nM | B34
1100 nM | B35
30 nM | B36
18 nM | B37
56 nM | B38
94 nM | B39
34 nM | B40
32 nM | B41
19 nM | B42
